Target: Tar-1 all-L NBD peptide (Escherichia coli)
Test: FRET in PE/PG (7:3 w/w) SUV, NBD donor and rhodamine-TAMRA acceptor, acceptor-to-lipid ratio 1:7500

B1: Tar-1 diastereomeric rhodamine peptide (peptide)
peptide: KKKMVLGVFALLQLISGSLKK
modifications: not checked
- energy transfer: 30%

Source: patent US20080096809A1
